Measurements as given in patent publication US20070105771A1 (Y S THERAPEUTICS, published 2007).

Key:
Assay in all cases: peptide microarray
[1] = target: T1, human CD26-derived 13 mer peptide 28 (human)
T1 peptide: INDYSISPDGQFI
Procedure: (§1) The overnight incubation was followed by three washings with each of PBS buffer pH 7.5 and water. The microarrays were then scanned using ArrayWorx-Microarray Scanner.
(§2) The SPOT recognition software package ArrayPro was used for data analysis. The mean of signal intensities from 3 identical subarrays on each microarray image was used for data evaluation.

[2] = target: T2, human CD26-derived 13 mer peptide 26 (human)
T2 peptide: FGHSINDYSISPD
Procedure: as §1, §2

[3] = target: T3, human CD26-derived 13 mer peptide 106 (human)
T3 peptide: KAGAVNPTVKFFV
Procedure: as §1, §2

[4] = target: T4, human CD26-derived 13 mer peptide 80 (human)
T4 peptide: EVFSAYSALWWSP
Procedure: as §1, §2

[5] = target: T5, human CD26-derived 13 mer peptide 104 (human)
T5 peptide: VPYPKAGAVNPTV
Procedure: as §1, §2

[6] = target: T6, human CD26-derived 13 mer peptide 30 (human)
T6 peptide: SISPDGQFILLEY
Procedure: as §1, §2

[7] = target: T7, human CD26-derived 13 mer peptide 108 (human)
T7 peptide: VNPTVKFFVVNTD
Procedure: as §1, §2

[8] = target: T8, human CD26-derived 13 mer peptide 89 (human)
T8 peptide: AYAQFNDTEVPLI
Procedure: as §1, §2

[9] = target: T9, human CD26-derived 13 mer peptide 126 (human)
T9 peptide: HYLCDVTWATQER
Procedure: as §1, §2

[10] = target: T10, human CD26-derived 13 mer peptide 7 (human)
T10 peptide: LRWISDHEYLYKQ
Procedure: as §1, §2

[11] = target: T11, human CD26-derived 13 mer peptide 17 (human)
T11 peptide: NAEYGNSSVFLEN
Procedure: as §1, §2

[12] = target: T12, human CD26-derived 13 mer peptide 33 (human)
T12 peptide: QFILLEYNYVKQW
Procedure: as §1, §2

[13] = target: T13, human CD26-derived 13 mer peptide 77 (human)
T13 peptide: DWVYEEEVFSAYS
Procedure: as §1, §2

[14] = target: T14, human CD26-derived 13 mer peptide 34 (human)
T14 peptide: ILLEYNYVKQWRH
Procedure: as §1, §2

[15] = target: T15, human CD26-derived 13 mer peptide 132 (human)
T15 peptide: RISLQWLRRIQNY
Procedure: as §1, §2

[16] = target: T16, human CD26-derived 13 mer peptide 113 (human)
T16 peptide: NTDSLSSVTNATS
Procedure: as §1, §2

[17] = target: T17, human CD26-derived 13 mer peptide 40 (human)
T17 peptide: HSYTASYDIYDLN
Procedure: as §1, §2

[18] = target: T18, human CD26-derived 13 mer peptide 57 (human)
T18 peptide: VGHKLAYVWNNDI
Procedure: as §1, §2

[19] = target: T19, human CD26-derived 13 mer peptide 47 (human)
T19 peptide: RQLITEERIPNNT
Procedure: as §1, §2

[20] = target: T20, human CD26-derived 13 mer peptide 82 (human)
T20 peptide: AYSALWWSPNGTF
Procedure: as §1, §2

[21] = target: T21, human CD26-derived 13 mer peptide 66 (human)
T21 peptide: PNLPSYRITWTGK
Procedure: as §1, §2

[22] = target: T22, human CD26-derived 13 mer peptide 100 (human)
T22 peptide: LQYPKTVRVPYPK
Procedure: as §1, §2

[23] = target: T23, human CD26-derived 13 mer peptide 74 (human)
T23 peptide: IYNGITDWVYEEE
Procedure: as §1, §2

[24] = target: T24, human CD26-derived 13 mer peptide 101 (human)
T24 peptide: YPKTVRVPYPKAG
Procedure: as §1, §2

[25] = target: T25, human CD26-derived 13 mer peptide 38 (human)
T25 peptide: KQWRHSYTASYDI
Procedure: as §1, §2

[26] = target: T26, human CD26-derived 13 mer peptide 18 (human)
T26 peptide: EYGNSSVFLENST
Procedure: as §1, §2

[27] = target: T27, human CD26-derived 13 mer peptide 127 (human)
T27 peptide: LCDVTWATQERIS
Procedure: as §1, §2

[28] = target: T28, human CD26-derived 13 mer peptide 94 (human)
T28 peptide: PLIEYSFYSDESL
Procedure: as §1, §2

[29] = target: T29, human CD26-derived 13 mer peptide 73 (human)
T29 peptide: DIIYNGITDWVYE
Procedure: as §1, §2

[30] = target: T30, human CD26-derived 13 mer peptide 117 (human)
T30 peptide: TNATSIQITAPAS
Procedure: as §1, §2

[31] = target: T31, human CD26-derived 13 mer peptide 60 (human)
T31 peptide: YVWNNDIYVKIEP
Procedure: as §1, §2

[32] = target: T32, human CD26-derived 13 mer peptide 81 (human)
T32 peptide: FSAYSALWWSPNG
Procedure: as §1, §2

[33] = target: T33, human CD26-derived 13 mer peptide 14 (human)
T33 peptide: NNILVFNAEYGNS
Procedure: as §1, §2

[34] = target: T34, human CD26-derived 13 mer peptide 44 (human)
T34 peptide: IYDLNKRQLITEE
Procedure: as §1, §2

[35] = target: T35, human CD26-derived 13 mer peptide 6 (human)
T35 peptide: YSLRWISDHEYLY
Procedure: as §1, §2

[36] = target: T36, human CD26-derived 13 mer peptide 92 (human)
T36 peptide: DTEVPLIEYSFYS
Procedure: as §1, §2

[37] = target: T37, human CD26-derived 13 mer peptide 42 (human)
T37 peptide: ASYDIYDLNKRQL
Procedure: as §1, §2

[38] = target: T38, human CD26-derived 13 mer peptide 114 (human)
T38 peptide: DSLSSVTNATSIQ
Procedure: as §1, §2

[39] = target: T39, human CD26-derived 13 mer peptide 112 (human)
T39 peptide: VVNTDSLSSVTNA
Procedure: as §1, §2

[40] = target: T40, human CD26-derived 13 mer peptide 3 (human)
T40 peptide: TYRLKLYSLRWIS
Procedure: as §1, §2

[41] = target: T41, human CD26-derived 13 mer peptide 124 (human)
T41 peptide: LIGDHYLCDVTWA
Procedure: as §1, §2

[42] = target: T42, human CD26-derived 13 mer peptide 20 (human)
T42 peptide: SSVFLENSTFDEF
Procedure: as §1, §2

B1: rhuMAb 411 (antibody, human IgG1, kappa, V domains shown)
VH: EVQLVESGAGVKQPGGTLRLTCTASGFSLTTYGVHWVRQAPGKGLEWVGVIWGDGRTDYDAAFMSRVTISKDTSKSTVYLQMNSLRAEDTAVYYCMRNRHDWFDYWGQGTTVTVSS
VL: DILLTQSPSSLSATPGERATITCRASQGIRNNLNWYQQKPGQAPRLLIYYSSNLQSGVPSRFSGSGSGTDFTLTISRLQPEDVAAYYCQQSIKLPFTFGSGTKVEIKR
notes: also called X411
For B1, the “Mean Signal Value” [1] was 0.221, the “Mean Signal Value” [2] was 0.0337 and the “Mean Signal Value” [3] was 0.245. For the same binder, the “Mean Signal Value” [4] was 17.7, the “Mean Signal Value” [5] was 0.00481 and the “Mean Signal Value” [6] was 6.26. The “Mean Signal Value” [7] was 1.33, the “Mean Signal Value” [8] was 0 and the “Mean Signal Value” [9] was 0.0337. The “Mean Signal Value” [10] was 20.6, the “Mean Signal Value” [11] was 0.0625 and the “Mean Signal Value” [12] was 21.8. The “Mean Signal Value” [13] was 13.7, the “Mean Signal Value” [14] was 15.7 and the “Mean Signal Value” [15] was 113. The “Mean Signal Value” [16] was 0.0288, the “Mean Signal Value” [17] was 32.2 and the “Mean Signal Value” [18] was 9.67. The “Mean Signal Value” [19] was 0, the “Mean Signal Value” [20] was 67.8 and the “Mean Signal Value” [21] was 0.111. The “Mean Signal Value” [22] was 0.00962, the “Mean Signal Value” [23] was 0 and the “Mean Signal Value” [24] was 0.00481. For the same binder, the “Mean Signal Value” [25] was 4.77, the “Mean Signal Value” [26] was 0 and the “Mean Signal Value” [27] was 0.00962. The “Mean Signal Value” [28] was 0.0433, the “Mean Signal Value” [29] was 33.6 and the “Mean Signal Value” [30] was 0.00962. For the same binder, the “Mean Signal Value” [31] was 0.0769, the “Mean Signal Value” [32] was 35.4 and the “Mean Signal Value” [33] was 0.00962. For the same binder, the “Mean Signal Value” [34] was 0, the “Mean Signal Value” [35] was 97.5 and the “Mean Signal Value” [36] was 11.9. The “Mean Signal Value” [37] was 0, the “Mean Signal Value” [38] was 0.00481 and the “Mean Signal Value” [39] was 0. The “Mean Signal Value” [40] was 0.726, the “Mean Signal Value” [41] was 12.7 and the “Mean Signal Value” [42] was 0.0577.
